Data set [1] addresses T1, IKK2 (HA epitope-tagged, expressed from pHA-IKK2), O14920.
T1 chain: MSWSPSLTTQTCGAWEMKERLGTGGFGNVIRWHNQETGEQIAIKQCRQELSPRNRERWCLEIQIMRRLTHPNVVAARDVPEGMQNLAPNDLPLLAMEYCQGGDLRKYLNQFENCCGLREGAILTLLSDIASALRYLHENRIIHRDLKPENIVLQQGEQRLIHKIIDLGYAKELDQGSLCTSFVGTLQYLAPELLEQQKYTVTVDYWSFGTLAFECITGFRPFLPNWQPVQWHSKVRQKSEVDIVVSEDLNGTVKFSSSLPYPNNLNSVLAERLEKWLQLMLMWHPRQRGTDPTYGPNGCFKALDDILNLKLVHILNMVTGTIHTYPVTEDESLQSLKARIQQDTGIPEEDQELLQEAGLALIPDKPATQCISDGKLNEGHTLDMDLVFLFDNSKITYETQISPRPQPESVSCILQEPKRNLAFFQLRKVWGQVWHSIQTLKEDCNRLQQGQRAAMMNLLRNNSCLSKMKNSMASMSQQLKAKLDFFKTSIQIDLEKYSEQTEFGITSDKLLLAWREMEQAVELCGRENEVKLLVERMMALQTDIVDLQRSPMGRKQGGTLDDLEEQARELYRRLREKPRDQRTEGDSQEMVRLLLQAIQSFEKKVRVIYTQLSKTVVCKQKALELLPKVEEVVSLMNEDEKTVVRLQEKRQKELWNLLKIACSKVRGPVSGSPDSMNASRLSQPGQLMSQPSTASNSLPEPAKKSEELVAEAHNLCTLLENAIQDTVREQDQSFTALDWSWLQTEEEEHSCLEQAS

Data set [2] addresses T2, Receptor Interacting Protein RIP (UniProt Q13546 1-671, limits assumed).
T2 sequence (looked up): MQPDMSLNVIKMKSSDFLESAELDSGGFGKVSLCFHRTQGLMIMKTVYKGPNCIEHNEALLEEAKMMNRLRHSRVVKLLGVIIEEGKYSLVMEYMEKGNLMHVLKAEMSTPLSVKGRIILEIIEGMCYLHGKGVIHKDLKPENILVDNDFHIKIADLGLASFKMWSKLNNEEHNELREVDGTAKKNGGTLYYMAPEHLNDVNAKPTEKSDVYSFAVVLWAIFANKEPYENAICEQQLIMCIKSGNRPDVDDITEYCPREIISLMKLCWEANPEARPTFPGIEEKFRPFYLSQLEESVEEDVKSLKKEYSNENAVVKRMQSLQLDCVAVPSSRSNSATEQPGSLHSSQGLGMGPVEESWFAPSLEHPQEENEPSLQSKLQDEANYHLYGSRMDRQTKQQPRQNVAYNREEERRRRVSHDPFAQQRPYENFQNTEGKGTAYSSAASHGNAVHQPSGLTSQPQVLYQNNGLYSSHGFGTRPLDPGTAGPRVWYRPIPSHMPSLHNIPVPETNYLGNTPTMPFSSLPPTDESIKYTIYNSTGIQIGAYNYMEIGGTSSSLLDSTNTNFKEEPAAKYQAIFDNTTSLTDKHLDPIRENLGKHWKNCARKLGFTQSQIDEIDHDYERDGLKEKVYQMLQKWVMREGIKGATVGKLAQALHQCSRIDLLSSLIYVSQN
The experiment in a line: not described (data not shown).

In data set [3] the target is T3, TNF Receptor Associated Factor 2 TRAF2 (UniProt Q12933 1-501, limits assumed).
T3 sequence (looked up): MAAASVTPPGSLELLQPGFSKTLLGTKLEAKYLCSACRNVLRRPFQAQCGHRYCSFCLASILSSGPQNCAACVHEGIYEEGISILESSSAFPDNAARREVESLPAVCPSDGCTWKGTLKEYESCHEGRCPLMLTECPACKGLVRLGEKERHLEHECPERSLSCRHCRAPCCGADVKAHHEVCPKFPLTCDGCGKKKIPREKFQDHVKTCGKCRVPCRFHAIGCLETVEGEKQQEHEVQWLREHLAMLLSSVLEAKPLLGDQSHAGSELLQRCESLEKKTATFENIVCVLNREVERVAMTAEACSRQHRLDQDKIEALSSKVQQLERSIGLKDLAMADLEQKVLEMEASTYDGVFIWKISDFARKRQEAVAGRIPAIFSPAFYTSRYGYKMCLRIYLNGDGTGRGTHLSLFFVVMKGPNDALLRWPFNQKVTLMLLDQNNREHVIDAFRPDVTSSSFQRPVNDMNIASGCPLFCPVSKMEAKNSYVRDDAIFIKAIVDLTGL
The experiment in a line: not described (data not shown).

In data set [4] the target is T4, IKK-γ subunit (endogenous, 293T cells) (human, UniProt Q9Y6K9 1-419).
T4 construct: also called endogenous IKK-γ
T4 sequence (Q9Y6K9 whole entry): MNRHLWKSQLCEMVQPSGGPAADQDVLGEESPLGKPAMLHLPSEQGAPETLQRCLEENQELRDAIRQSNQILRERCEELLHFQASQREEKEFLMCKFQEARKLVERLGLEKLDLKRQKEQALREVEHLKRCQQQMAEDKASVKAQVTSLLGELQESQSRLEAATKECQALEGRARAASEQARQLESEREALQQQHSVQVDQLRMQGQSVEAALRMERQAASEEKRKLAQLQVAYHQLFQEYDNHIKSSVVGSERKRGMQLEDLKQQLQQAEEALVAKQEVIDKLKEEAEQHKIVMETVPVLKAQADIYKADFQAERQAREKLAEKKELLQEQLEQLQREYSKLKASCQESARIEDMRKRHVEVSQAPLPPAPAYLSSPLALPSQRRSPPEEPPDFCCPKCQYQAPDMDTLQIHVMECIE
In words: co-immunoprecipitation with anti-IKK-γ from 293T lysates, immunoblot (FIG. 7C).

The text below walks through data of patent US20060251625A1 (published 2006).

B1: IKK1 (FLAG epitope-tagged, expressed from pFLAG-IKK1) (protein)
chain: MERPPGLRPGAGGPWEMRERLGTGGFGNVCLYQHRELDLKIAIKSCRLELSTKNRERWCHEIQIMKKLNHANVVKACDVPEELNILIHDVPLLAMEYCSGGDLRKLLNKPENCCGLKESQILSLLSDIGSGIRYLHENKIIHRDLKPENIVLQDVGGKIIHKIIDLGYAKDVDQGSLCTSFVGTLQYLAPELFENKPYTATVDYWSFGTMVFECIAGYRPFLHHLQPFTWHEKIKKKDPKCIFACEEMSGEVRFSSHLPQPNSLCSLVVEPMENWLQLMLNWDPQQRGGPVDLTLKQPRCFVLMDHILNLKIVHILNMTSAKIISFLLPPDESLHSLQSRIERETGINTGSQELLSETGISLDPRKPASQCVLDGVRGCDSYMVYLFDKSKTVYEGPFASRSLSDCVNYIVQDSKIQLPIIQLRKVWAEAVHYVSGLKEDYSRLFQGQRAAMLSLLRYNANLTKMKNTLISASQQLKAKLEFFHKSIQLDLERYSEQMTYGISSEKMLKAWKEMEEKAIHYAEVGVIGYLEDQIMSLHAEIMELQKSPYGRRQGDLMESLEQRAIDLYKQLKHRPSDHSYSDSTEMVKIIVHTVQSQDRVLKELFGHLSKLLGCKQKIIDLLPKVEVALSNIKEADNTVMFMQGKRQKEIWHLLKIACTQSSARSLVGSSLEGAVTPQTSAWLPPTSAEHDHSLSCVVTPQDGETSAQMIEENLNCLGHLSTIIHEANEEQGNSMMNLDWSWLTE
Regarding B1, the “phosphorylation of recombinant IκBα in an in vitro kinase assay of anti-IKK1 immunoprecipitates” value in data set [1] is given as “a phosphorylated form of recombinant IκBα was easily detected”.

B2: Molluscum contagiosum virus (MCV) MC160 protein (other)
chain: MAHEPIPFSFLRNLLAELDASEHEVLRFLCRDVAPASKTAEDALRALQRRRLLTLSSMAELLCALRRFDVLKVRFGMTRECAGRLLGHGFLSQYRLQVAAINNMVGSEDLRVMCLCAGKLLPPSCTPRCLVDLVSALEDAGAISPQDVSVLVTLLHAVCRYDLSVALSAVAHGHMTVGVGTPVQDEPMDVLEVDDAEPMEATPACDEIGVVKLAGAASAGAPLADGAFAACTSAGKGEDLATSDLTDSEPEDSVFAVADPVYADVDLSMFVRANATADSSMFVNADAGADSSLVNADAGADSSLVNADAGADSSLVNAVADANSSLMRTTSACTDSEPEDSAGPSCAGMALSMFGRAKSVSSLLLRTKASY
notes: also called wild type MC160
Take B2: the binding result in data set [2], in data set [3] and in data set [4] was “no binding” in each case.
